Biological target: the molecule itself
Experiment: SEC-MALS; SEC-MALLS at 4 °C; 20 µL of JIP1^SH3 at 5.6 mg mL^-1 injected at 0.5 mL min^-1 on Superdex 200 10/300 GL in 50 mM HEPES pH 7.1, 150 mM NaCl, 2 mM DTT

B1: JIP1^SH3 (JIP1 IDR residues 1–450 linked to the SH3 domain of JIP1, residues 489–553, via a (GS)3G linker) (domain or fragment)
chain: GHMMAERESGGLGGGAASPPAASPFLGLHIASPPNFRLTHDISLEEFEDEDLSEITDECGISLQCKDTLSLRPPRAGLLSAGGGGAGSRLQAEMLQMDLIDATGDTPGAEDDEEDDDEERAARRPGAGPPKAESGQEPASRGQGQSQGQSQGPGSGDTYRPKRPTTLNLFPQVPRSQDTLNNNSLGKKHSWQDRVSRSSSPLKTGEQTPPHEHICLSDELPPQSGPAPTTDRGTSTDSPCRRSTATQMAPPGGPPAAPPGGRGHSHRDRIHYQADVRLEATEEIYLTPVQRPPDAAEPTSAFLPPTESRMSVSSDPDPAAYPSTAGRPHPSISEEEEGFDCLSSPERAEPPGGGWRGSLGEPPPPPRASLSSDTSALSYDSVKYTLVVDEHAQLELVSLRPCFGDYSDESDSATVYDNCASVSSPYESAIGEEYEEAPRPQPPACLSEDSTPDGSGSGSGQEQTHRAIFRFVPRHEDELELEVDDPLLVELQAEDYWYEAYNMRTGARGVFPAYYAIEVTKEPEH
notes: extension left at the N-terminus after TEV cleavage; (GS)3G linker that replaces residues 451-488 of JIP1; Residues 451-488 of JIP1 replaced by the glycine-serine linker because they are prone to aggregation; also called JIP1^SH3 dimer; not shown: thioredoxin, N-terminal, cleaved; His6, N-terminal, cleaved
stoichiometry N: 2

Reference: paper PMC12463012, “Sequence‐ and Docking‐Site‐Dependent Contributions to Multi‐Site Phosphorylation of an Intrinsically Disordered MAPK Substrate” (Advanced Science, 2025)
